The target in the assay is Enterococcus faecalis pyruvate dehydrogenase complex component E2 (dihydrolipoamide acetyltransferase) (Enterococcus faecalis). The assay is described as follows: SEC.

Consider “Enterococcus faecalis pyruvate dehydrogenase complex component E1 (pyruvate dehydrogenase; E1α and E1β) (from UniProt A0ACD6TC15 1-371)”, for which the relative abundance of subunits E1, E2, and E3 (mass ratio, E2 = 1) was 2.27 mass ratio.
In the case of “Enterococcus faecalis pyruvate dehydrogenase complex component E3 (dihydrolipoyl dehydrogenase) (from UniProt A0ACD6TCW3 1-468) (enzyme)” it was 1.26 mass ratio.

(Values after PMC4212835.)
